Results from publication PMC2741639 (Microbiological research, 2008).

Biological target: the molecule itself
Test: native gel or EMSA

B1: His-tagged Sbm (enzyme, E. coli, UniProt P27253 1-714, looked up)
chain: MSNVQEWQQLANKELSRREKTVDSLVHQTAEGIAIKPLYTEADLDNLEVTGTLPGLPPYVRGPRATMYTAQPWTIRQYAGFSTAKESNAFYRRNLAAGQKGLSVAFDLATHRGYDSDNPRVAGDVGKAGVAIDTVEDMKVLFDQIPLDKMSVSMTMNGAVLPVLAFYIVAAEEQGVTPDKLTGTIQNDILKEYLCRNTYIYPPKPSMRIIADIIAWCSGNMPRFNTISISGYHMGEAGANCVQQVAFTLADGIEYIKAAISAGLKIDDFAPRLSFFFGIGMDLFMNVAMLRAARYLWSEAVSGFGAQDPKSLALRTHCQTSGWSLTEQDPYNNVIRTTIEALAATLGGTQSLHTNAFDEALGLPTDFSARIARNTQIIIQEESELCRTVDPLAGSYYIESLTDQIVKQARAIIQQIDEAGGMAKAIEAGLPKRMIEEASAREQSLIDQGKRVIVGVNKYKLDHEDETDVLEIDNVMVRNEQIASLERIRATRDDAAVTAALNALTHAAQHNENLLAAAVNAARVRATLGEISDALEVAFDRYLVPSQCVTGVIAQSYHQSEKSASEFDAIVAQTEQFLADNGRRPRILIAKMGQDGHDRGAKVIASAYSDLGFDVDLSPMFSTPEEIARLAVENDVHVVGASSLAAGHKTLIPELVEALKKWGREDICVVAGGVIPPQDYAFLQERGVAAIYGPGTPMLDSVRDVLNLISQHHD
B1 was tested, and the “stoichiometry N” value was 2.
